Data published in the RNAGym collection of RNA variant scans (doi:10.1021/acssynbio.7b00057).

B1: Pistol ribozyme (parent)
chain: GGGUCGUUGUUCCAUAAUCGCGUGGAUAUGGCACGCAAGUUUCUACCGGGCACCGUAAAUGUCCGACUGGAGCCGUUCGGGCGGCUAUAAACAGACCUCAGGCCCGAAGCGUGGCGGCACCUGCCGCCGGUGGUAAAAAAGAUCGGAAGAGCACACGUCU

Variants of: B1
Assay: aptazyme ON/OFF ratio, guanine; higher = stronger switching; co-transcriptional cleavage with and without guanine

Aptazyme ON/OFF ratio, 1.36:
U7G C12U C13U
U7C U10C C12U C13U

Aptazyme ON/OFF ratio, 4.35:
U7G G9A

Aptazyme ON/OFF ratio, 1.16:
U7C U10G U11C C12U C13G
U7C U10G C13G
U7C U10G U11G C12A C13G
U7C U10G U11C C12G C13G
U7C U11A C12G C13G
U7C U10A U11G C12G C13G
U7C U10C U11G C12U C13U
U7C U10C U11G C12U C13A
U7C U10A U11A C12U C13G
U7C U11C

Aptazyme ON/OFF ratio, 1.1:
U7G G9A U10A U11C C12A C13G
U7C U10G U11A C12U C13G
U7G G9A C12G C13G
U7C U10G U11C
U7C U10G U11A

Aptazyme ON/OFF ratio, 1.01:
U7C U10A U11C C13U
U7C U10A U11C C13G

Aptazyme ON/OFF ratio, 1.27:
U7C U10G U11C C12U C13U
U7C U10A U11A C12U C13U
U7C U11C C12A C13A

Aptazyme ON/OFF ratio, 1.3:
U7C U10C U11G C12G
U7C U10C C12U C13A

Aptazyme ON/OFF ratio, 1.35:
U7C U10A U11G C12U C13A
U7C U10C U11G C12A
U7C U10A C12U C13U

Aptazyme ON/OFF ratio, 2.47:
U7C U10C C13U

Aptazyme ON/OFF ratio, 1.25:
U7C U10C U11C C12A C13A
U7C U10A C12A C13U
U7C U11C C12A C13U
U7G G9A U10A C12G C13U

Aptazyme ON/OFF ratio, 1.02:
U7C U10A U11C C13A

Aptazyme ON/OFF ratio, 1.22:
U7G G9A U10A U11C C12G
U7C U10G U11C C12G C13A
U7G G9A U10A C12U C13U
U7C U10G U11G C13U
U7C U10G U11G C12G
U7C U10G U11A C12U C13U
U7C U10A U11C C12G C13U
U7C U10G U11A C12G C13U

Aptazyme ON/OFF ratio, 1.89:
U7G

Aptazyme ON/OFF ratio, 1.65:
U7C U10G

Aptazyme ON/OFF ratio, 1.21:
U7C U11A C12G
U7G C12U C13A
U7G C12U C13G
U7G G9A U10A U11C C12A C13U
U7C U10G U11G C12U

Aptazyme ON/OFF ratio, 1.32:
U7C U10G C12U
U7C U10C U11C C12A C13G

Aptazyme ON/OFF ratio, 3.35:
U7G G9A U10C

Aptazyme ON/OFF ratio, 1.49:
U7G G9A C13U

Aptazyme ON/OFF ratio, 1.39:
U7C U10G C13U

Aptazyme ON/OFF ratio, 1.5:
U7C U10A U11G C12U C13U

Aptazyme ON/OFF ratio, 1.28:
U7C U10G U11C C12U C13A
U7C U10C C12G
U7G G9A U10A C13U
U7C U10G U11C C12G C13U
U7C U10C C12U C13G
U7C U10A U11A C13A
U7C U10A U11A C12U C13A
U7C U11C C12A C13G
U7C U10C C13G
U7C U10A U11G C13U

Aptazyme ON/OFF ratio, 1.08:
U7G C12G C13A
U7G C13A
U7C U10A C12A C13G
U7G G9A U10A U11C C13G
U7G G9A U10A U11G C12A C13G

Aptazyme ON/OFF ratio, 3.3:
U7G G9A U10A

Aptazyme ON/OFF ratio, 1.12:
U7C U10A U11G C12G C13U
U7G G9A U10A C12G C13G
U7G G9A U10A U11G C12A C13U

Aptazyme ON/OFF ratio, 1.14:
U7G C12G C13G
U7G G9A U10A C12U C13A
U7C U10A C12U C13G

Aptazyme ON/OFF ratio, 1.38:
U7C U11A

Aptazyme ON/OFF ratio, 1.07:
U7G G9A U10A C13A
U7C U11A C12G C13U
U7G G9A U10A U11G C12U C13A
U7C U10A U11C C12U C13G

Aptazyme ON/OFF ratio, 1.05:
U7G G9A U10A U11C C12U
U7C U10A C13G
U7G C13G
U7C U10A U11C C12U C13U
U7C U10A U11C C12U C13A
U7G G9A U10A U11G C12A C13A

Aptazyme ON/OFF ratio, 1.13:
U7C U10G U11G C12A C13A
U7G G9A U10A U11C C12A C13A
U7C U10G U11G C13G
U7C U10G C12G C13G
U7G G9A C12G C13A
U7C U10G U11A C12A
U7C U11G C12U C13A

Aptazyme ON/OFF ratio, 1.04:
U7C U10A C13U

Aptazyme ON/OFF ratio, 1.11:
U7G G9A C13G
U7C U10C U11G C12A C13A
U7C U10G C12A
U7C U11A C12G C13A
U7G G9A U10A U11G C12U C13U
U7C U10C C13A

Aptazyme ON/OFF ratio, 1.31:
U7G G9A U10A C12U
U7C U10A U11C C12G C13G

Aptazyme ON/OFF ratio, 1.17:
U7G C12G C13U
U7C U10A U11G C12A C13A
U7C U10A U11G C12A C13U
U7C U10G C12G C13A
U7C U10A U11G C13G

Aptazyme ON/OFF ratio, 1.19:
U7C U10A U11G C12U
U7C U10C U11G C12A C13G
U7C U10G U11A C12U C13A
U7C U10A U11A C13U
U7C U10A C12U C13A

Aptazyme ON/OFF ratio, 1.23:
U7C U10G U11G

Aptazyme ON/OFF ratio, 1.26:
U7C U10C C12A
U7C U10G U11G C12A C13U
U7C U10A U11G C12G C13A

Aptazyme ON/OFF ratio, 1.06:
U7C U10A C13A
U7G G9A U10A C13G
U7G G9A U10A U11C C13U
U7C U11G C12U C13G

Aptazyme ON/OFF ratio, 1.41:
U7C U10C U11G C12U C13G

Aptazyme ON/OFF ratio, 1.37:
U7C U10C C12A C13A

Aptazyme ON/OFF ratio, 3.58:
U7C U10C C12U

Aptazyme ON/OFF ratio, 1.92:
U7C U10C

Aptazyme ON/OFF ratio, 1.18:
U7C U10A U11G C12G
U7C U11A C12U
U7C U10G C12G
U7C U10C U11G C12U
U7G G9A U10A C12G
U7C U10G C12G C13U
U7C U10C C12A C13G
U7G G9A C12G C13U

Aptazyme ON/OFF ratio, 1.29:
U7C U10A U11G C12A

Aptazyme ON/OFF ratio, 1.51:
U7C U11A C12A

Aptazyme ON/OFF ratio, 0.975:
U7C U10A U11G C12A C13G

Aptazyme ON/OFF ratio, 1.34:
U7C U10C C12A C13U

Aptazyme ON/OFF ratio, 1.33:
U7C U10C U11G C12A C13U

Aptazyme ON/OFF ratio, 1.09:
U7G C13U
U7G G9A U10A U11G C12U C13G
U7G G9A U10A U11C C13A
U7G G9A U10A C12G C13A
U7C U10G U11A C12G C13A

Aptazyme ON/OFF ratio, 1.2:
U7C U10A U11G C12U C13G
U7C U10C U11C C12A C13U
U7C U10G C13A
U7G G9A U10A U11C C12U C13U
U7G G9A U10A C12A
U7C U10G U11G C12A
U7C U10A U11A C13G
U7C U11G
U7C U10A U11C C12G C13A
U7C U11G C12U C13U

Aptazyme ON/OFF ratio, 1.15:
U7G G9A U10A U11C C12U C13A
U7G G9A U10A U11C C12U C13G
U7C U10G U11G C13A
U7C U10C U11A C12G C13U
U7C U10C U11A C12G C13G
U7C U10C U11A C12G C13A
U7C U10G U11A C12G
U7C U10G U11A C12U
U7C U10G U11A C12G C13G

Aptazyme ON/OFF ratio, 1.24:
U7G G9A C13A
U7G G9A U10A U11C C12A
U7G G9A U10A C12U C13G
U7C U10A U11G C13A
